The record followed here is doi:10.1101/679134.

The subject of the data set is CsrA-2 (rCsrA-2) (Coxiella burnetii). Kind of data set: EMSA. The following applies: 30 min 37 C, pH not stated.

Broadly, the Kd is the free concentration of one partner at which half of the binding sites on the other are occupied at equilibrium, for simple one-to-one binding. Low readings indicate tighter binding, high ones weaker binding. CbsR12 showed a Kd of 130 nM.
